In FireProtDB (doi:10.1021/bi00146a008):

B1: Lysozyme C, P61626 (parent)
chain: MKALIVLGLVLLSVTVQGKVFERCELARTLKRLGMDGYRGISLANWMCLAKWESGYNTRATNYNAGDRSTDYGIFQINSRYWCNDGKTPGAVNACHLSCSALLQDNIADAVACAKRVVRDPQGIRAWVAWRNRCQNRDVRQYVQGCGV

Variants of: B1
Settings: Homo sapiens, pH 2.8, Thermal, DSC, glycine-HCl 50 mM, reversible: yes, structure 1LZ1, whole UniProt chain shown

P89G P121G
ddG of mutation (higher = less stable) (68.8 °C): 6.69 kJ/mol | heat capacity change of unfolding (68.8 °C): 1.58 kcal/mol/K | unfolding enthalpy (calorimetric) (68.8 °C): 504 kJ/mol | Tm: 64.3 °C | change of melting temperature, mutant - wild type (higher = more stable): -4.5 °C | heat capacity change of unfolding: 1.58 kcal/mol/K

V128P
ddG of mutation (higher = less stable) (68.8 °C): -2.09 kJ/mol | heat capacity change of unfolding (68.8 °C): 1.57 kcal/mol/K | unfolding enthalpy (calorimetric) (68.8 °C): 503 kJ/mol | Tm: 70 °C | change of melting temperature, mutant - wild type (higher = more stable): 1.2 °C | heat capacity change of unfolding: 1.57 kcal/mol/K

A65P
ddG of mutation (higher = less stable) (68.8 °C): -0.418 kJ/mol | heat capacity change of unfolding (68.8 °C): 1.56 kcal/mol/K | unfolding enthalpy (calorimetric) (68.8 °C): 500 kJ/mol | Tm: 69.1 °C | change of melting temperature, mutant - wild type (higher = more stable): 0.3 °C | heat capacity change of unfolding: 1.56 kcal/mol/K

P89G
ddG of mutation (higher = less stable) (68.8 °C): 6.69 kJ/mol | heat capacity change of unfolding (68.8 °C): 1.58 kcal/mol/K | unfolding enthalpy (calorimetric) (68.8 °C): 505 kJ/mol | Tm: 64.1 °C | change of melting temperature, mutant - wild type (higher = more stable): -4.7 °C | heat capacity change of unfolding: 1.58 kcal/mol/K

P121G
ddG of mutation (higher = less stable) (68.8 °C): 0.418 kJ/mol | heat capacity change of unfolding (68.8 °C): 1.58 kcal/mol/K | unfolding enthalpy (calorimetric) (68.8 °C): 501 kJ/mol | Tm: 68.7 °C | change of melting temperature, mutant - wild type (higher = more stable): -0.1 °C | heat capacity change of unfolding: 1.58 kcal/mol/K

D109P
ddG of mutation (higher = less stable) (68.8 °C): 1.67 kJ/mol | heat capacity change of unfolding (68.8 °C): 1.57 kcal/mol/K | unfolding enthalpy (calorimetric) (68.8 °C): 483 kJ/mol | Tm: 67.7 °C | change of melting temperature, mutant - wild type (higher = more stable): -1.1 °C | heat capacity change of unfolding: 1.57 kcal/mol/K
